Experimental data: patent publication US9050375B2, “Bi-specific digoxigenin binding antibodies” (priority 2009, dated 2015)
Where “and” joins values, the source holds several entries; their conditions need not be identical. Equal values may be shown once.

Experiments:
KPL-4 cells = assay: CellTiter Glo Luminescent Cell Viability Assay, doxorubicin; assay type: cell-based; details: Homo sapiens, KPL4, 48 hours
Procedure: (§1) Then, cell viability was assessed by applying the CellTiter Glo Luminescent Cell Viability Assay (Promega, Madison, Wis.).

H322M cells = assay: as above; assay type: cell-based; details: Homo sapiens, NCI-H322M, 48 hours
Procedure: as §1

MDA-MB-468 cells = assay: as above; assay type: cell-based; details: Homo sapiens, 48 hours
Procedure: as §1
These experiments included an additional breast tumor cell line MDA-MB-468. […] Thereafter, cell viability was assessed by applying the CellTiter Glo Luminescent Cell Viability Assay (Promega, Madison, Wis.).

[1] = system: CD22 positive Raji and Ramos cells; assay: FACS analysis with <CD22>-<DIG> and DIG-Cy5; assay type: cell-based; details: 5 μg/ml <CD22>-<DIG>, DIG-Cy5 66.4 nM
Procedure: For these analyses we used CD22 positive Raji and Ramos cells and the bispecific <CD22>-<DIG> antibody. 3×10^5 cells per well of a 96-well-plate were incubated with 5 μg/ml of the <CD22>-<DIG> antibody in FACS buffer (PBS containing 5% FCS). After washing the cells were incubated with DIG-Cy5 in a final concentration of 66.4 nM. After another washing step cells were analysed with the FACS canto II (BD Biosciences).

[2] = Excitation and emission spectra of Cy5, Dig-Cy5 and complex; assay type: physicochemical
Source text: To evaluate whether digoxygenation of Cy5 alters its fluorescence features, we compared the excitation and emission spectra of Cy5 and compared it with the spectra of the newly generated Dig-Cy5 and with Dig-Cy5 within a complex with bispecific antibodies. […] We conclude that Dig-Cy5 and -complexes can be applied for antibody-mediated targeting and in vivo imaging.

[3] = system: IGF1R expressing H322M tumor xenografts; assay: Near Infrared Fluorescence Imaging (NIRF) in vivo, H322M xenografts; design: species or system mice; details: not complexed with antibody; some accumulation in the liver
Procedure: To analyze if the specific antigen binding functionality of the antibody-complexes can be utilized to specifically deliver imaging reagents to tumor cells, we performed Near Infrared Fluorescence Imaging Studies (NIRF) in vivo. […] These xenografts were either expressing the antigen Her2 (KPL4 cells) or the antigen IGF1R (H322M cells). Subsequently NIRF imaging was performed by using the Maestro system from CRI. Animals were placed in a measuring chamber and the fluorescence was measured over a defined spectral wavelength array, depending on the dye. Spectral information of each pixel of the obtained image was analyzed by a special software which allows to separate different pre-defined spectra, e.g. autofluorescence and the signal of the dye. Theses separated specific signals were quantified by the Maestro software in order to compare different samples.
To analyze whether the <Her2>-<Dig>-Dig-siRNA complexes, and <IGF1R>-<Dig>-Dig-siRNA complexes mediate specific targeting of their payload towards antigen expressing cells not only in cell culture experiments but also in live animals, we made use of the fact that siRNAs can simultaneously be labeled with Dig as well as with fluorescence labels. […] The technology that we've applied for this task is Near Infrared Fluorescence Imaging (NIRF) in vivo. […]

DIG-siRNA2349 = assay: SPR binding to DIG-siRNA2349; details: analyte DIG-siRNA2349; replicate lines; listed as <DIG>hu2
Procedure: For that, binding properties of the recombinant <Dig> derivatives were analyzed by surface plasmon resonance (SPR) technology using a Biacore T100 or Biacore 3000 instrument (GE Healthcare Bio-Sciences AB, Uppsala). This system is well established for the study of molecule interactions. It allows a continuous real-time monitoring of ligand/analyte bindings and thus the determination of association rate constants (ka), dissociation rate constants (kd), and equilibrium constants (KD) in various assay settings. SPR-technology is based on the measurement of the refractive index close to the surface of a gold coated biosensor chip. Changes in the refractive index indicate mass changes on the surface caused by the interaction of immobilized ligand with analyte injected in solution. If molecules bind to immobilized ligand on the surface the mass increases, in case of dissociation the mass decreases. To perform the binding studies capturing anti-human IgG antibody was immobilized on the surface of a CM5 biosensor chip using amine-coupling chemistry. Flow cells were activated with a 1:1 mixture of 0.1 M N-hydroxysuccinimide and 0.1 M 3-(N,N-dimethylamino)propyl-N-ethylcarbodiimide at a flow rate of 5 μl/min. […] A reference control flow cell was treated in the same way but with vehicle buffers only instead of the capturing antibody. Surfaces were blocked with an injection of 1 M ethanolamine/HCl pH 8.5. To compare the binding of the humanized protein variants with that of the murine <Dig> IgG from the original hybridoma 19-11, capturing anti-mouse IgG antibody was immobilized on the surface of a CM5 biosensor chip in the same fashion as described above for the anti-human IgG antibody. To evaluate the functionality of the recombinant <Dig> derivatives, binding of the recombinant hu<Dig> modules, incl. (i) humanized IgG, (ii) fusion proteins harboring hu<Dig> scFv or (iii) disulfide-stabilized scFvs was assayed with different digoxygenated antigens The resulting binding affinities were compared to the binding of the murine ‘wildtype’ DIG-IgG from which the recombinant humanized modules were derived. […]

DIG-Myoglobin = assay: SPR binding to mono-digoxygenated protein DIG-myoglobin; details: analyte DIG-Myoglobin; replicate lines; listed as <DIG>hu2
Procedure: For that, binding properties of the recombinant <Dig> derivatives were analyzed by surface plasmon resonance (SPR) technology using a Biacore T100 or Biacore 3000 instrument (GE Healthcare Bio-Sciences AB, Uppsala). This system is well established for the study of molecule interactions. It allows a continuous real-time monitoring of ligand/analyte bindings and thus the determination of association rate constants (ka), dissociation rate constants (kd), and equilibrium constants (KD) in various assay settings. SPR-technology is based on the measurement of the refractive index close to the surface of a gold coated biosensor chip. Changes in the refractive index indicate mass changes on the surface caused by the interaction of immobilized ligand with analyte injected in solution. If molecules bind to immobilized ligand on the surface the mass increases, in case of dissociation the mass decreases. To perform the binding studies capturing anti-human IgG antibody was immobilized on the surface of a CM5 biosensor chip using amine-coupling chemistry. Flow cells were activated with a 1:1 mixture of 0.1 M N-hydroxysuccinimide and 0.1 M 3-(N,N-dimethylamino)propyl-N-ethylcarbodiimide at a flow rate of 5 μl/min. […] A reference control flow cell was treated in the same way but with vehicle buffers only instead of the capturing antibody. Surfaces were blocked with an injection of 1 M ethanolamine/HCl pH 8.5. To compare the binding of the humanized protein variants with that of the murine <Dig> IgG from the original hybridoma 19-11, capturing anti-mouse IgG antibody was immobilized on the surface of a CM5 biosensor chip in the same fashion as described above for the anti-human IgG antibody. To evaluate the functionality of the recombinant <Dig> derivatives, binding of the recombinant hu<Dig> modules, incl. (i) humanized IgG, (ii) fusion proteins harboring hu<Dig> scFv or (iii) disulfide-stabilized scFvs was assayed with different digoxygenated antigens The resulting binding affinities were compared to the binding of the murine ‘wildtype’ DIG-IgG from which the recombinant humanized modules were derived.
Another SPR study was performed in which the binding affinity of <DIG>-hu2, IGF1R-DIG and <DIG> M-19-11 was compared in terms of binding to the mono-digoxygenated protein DIG-myoglobin.

[4] = SPR (BiaCore) of sequence-optimized anti-Dig modules; assay type: binding; details: FIG. 46 c, d, read-out: KD of anti-Dig module
Source text: Further optimization of the humanized VH and VL sequences of the anti-digoxygenin antibody was applied to generate modules with even higher affinity towards digoxygenin. Based upon the experimentally determined as well as in-silico calculated predicted structures (see above, based upon structure modeling without experimental structure determination), we identified three positions in which alterations might affect affinity. These were located at (Kabat positions) Ser49, Ile57 and Ala60 of the VH domain (FIG. 46). Replacement of the amino acid VHSer49 with Ala, VHIle57 with Ala and of VHAla60 with Pro generated antibody derivatives with sequences that are listed as SEQ ID NO 36 and SEQ ID NO 37. […] The relevance of these positions was thereafter confirmed by inspecting the experimentally determined structure of the dig-binding variable region. The digoxygenin binding module with improved affinity can be applied as hapten-binding entity for various bi- and multispecific antibody derivatives.
For that, binding properties of the recombinant <Dig> derivatives were analyzed by surface plasmon resonance (SPR) technology using a Biacore T100 or Biacore 3000 instrument (GE Healthcare Bio-Sciences AB, Uppsala). This system is well established for the study of molecule interactions. […]

Eg5-siRNA-(2×)DIG = assay: SPR (Biacore) binding to bi-digoxygenated siRNA; details: 25° C., read-out: KD, binding of siRNA-(2x)DIG
Procedure: (§2) For that, binding properties of the recombinant <Dig> derivatives were analyzed by surface plasmon resonance (SPR) technology using a Biacore T100 or Biacore 3000 instrument (GE Healthcare Bio-Sciences AB, Uppsala). […] To perform the binding studies capturing anti-human IgG antibody was immobilized on the surface of a CM5 biosensor chip using amine-coupling chemistry. Flow cells were activated with a 1:1 mixture of 0.1 M N-hydroxysuccinimide and 0.1 M 3-(N,N-dimethylamino)propyl-N-ethylcarbodiimide at a flow rate of 5 μl/min. […] A reference control flow cell was treated in the same way but with vehicle buffers only instead of the capturing antibody. Surfaces were blocked with an injection of 1 M ethanolamine/HCl pH 8.5. […]
(§3) Anti-mouse IgG antibody was immobilized on the surface of a CM5 biosensor chip in the same fashion as described above. […] The samples to be analyzed were diluted in HBS-P (10 mM HEPES, pH 7.4, 150 mM NaCl, 0.005% Surfactant P20) and injected at a flow rate of 5 μl/min. […] Signals were detected at a rate of one signal per second.
(§4) The samples to be analyzed were diluted in HBS-P and injected at a flow rate of 5 μl/min. […]

Eg5-siRNA-DIG = assay: SPR (Biacore) binding to mono-digoxygenated siRNA; details: 25° C.
Procedure: as §2, §3, §4

Molecule: COc1cccc2c1C(=O)c1c(O)c3c(c(O)c1C2=O)C[C@@](O)(C(=O)CO)C[C@@H]3O[C@H]1C[C@H](N)[C@H](O)[C@H](C)O1 [doxorubicin, Doxorubicin]
- IC50 (KPL-4 cells): 2600 nM
- IC50 (H322M cells): 25000 nM
- IC50 (MDA-MB-468 cells): 17000 nM

Molecule: CCN1c2ccc(S(=O)(=O)O)cc2C(C)(C)C1/C=C/C=C/C=C1\N(CCCCCC(=O)NCCNC(=O)CO[C@H]2CC[C@@]3(C)[C@H](CC[C@@H]4[C@@H]3C[C@@H](O)[C@]3(C)[C@@H](C5=CC(=O)OC5)CC[C@]43O)C2)c2ccc(S(=O)(=O)O)cc2C1(C)C (stereo partly drawn) [Dig-Cy5]
- binding to Raji or Ramos cells (FACS) [1]: hardly any binding
- Emission wavelength (max.) [2]: at 670 nm
- Excitation wavelength [2]: 575-605 nm
- tumor specific fluorescence (NIRF) without antibody [3]: no tumor specific fluorescence

B1: humanized DIG-IgG: recombinant humanized anti-digoxigenin IgG; Seq. ID. NO. 3-6 (antibody, V domains shown)
VH: QVQLVESGGGLVKPGGSLRLSCAASGFTFSDYAMSWIRQAPGKGLEWVSSINIGATYIYYADSVKGRFTISRDNAKNSLYLQMNSLRAEDTAVYYCARPGSPYEYDKAYYSMAYWGQGTTVTVSS
VL: DIQMTQSPSSLSASVGDRVTITCRASQDIKNYLNWYQQKPGKAPKLLIYYSSTLLSGVPSRFSGSGSGTDFTLTISSLQPEDFATYYCQQSITLPPTFGGGTKVEIKR
notes: recombinant humanized anti-digoxigenin IgG; ID; NO; 3-6
- Kd (DIG-siRNA2349): 14.5 nM and 15.6 nM
- ka (DIG-siRNA2349): 645000 M⁻¹ s⁻¹ and 628000 M⁻¹ s⁻¹
- kd (DIG-siRNA2349): 0.00937 s⁻¹ and 0.0098 s⁻¹
- ka (DIG-Myoglobin): 620000 M⁻¹ s⁻¹ and 749000 M⁻¹ s⁻¹
- kd (DIG-Myoglobin): 0.00982 s⁻¹ and 0.00881 s⁻¹
- Kd [4]: 12 nM
- Kd (Eg5-siRNA-(2×)DIG): 0.008 nM
- Kd (Eg5-siRNA-DIG): 12 nM
